# Results as given in patent US20240116985A1, “STAPLED PEPTIDES AND METHODS THEREOF” (priority 2020, published 2024).
# Starred links: 1 amine or outer side, 2 acyl side, 3 side chain; linkers in the order of their positions; H or OH if unused. Positions of bridges follow the written chain, without caps; N, C: chain ends. Non-standard residues stand in square brackets, D forms with d. Primed or numbered codes have the meaning given here. *: point of attachment. PyrS2(3) = (S)-3-amino-1-((pent-4-en-1-yloxy)carbonyl)pyrrolidine-3-carboxylic acid, stapling residue, C=CCCCOC(=O)N1CC[C@@](N[*:1])(C(=O)[*:2])C1; PyrS2″ = (S)-3-amino-1-((pent-4-en-1-yloxy)carbonyl)pyrrolidine-3-carboxylic acid (stapling residue), C=CCCCOC(=O)N1CC[C@@](N[*:1])(C(=O)[*:2])C1; (CH2NMe2)TriAzDap = (S)-2-amino-3-(4-((dimethylamino)methyl)-1H-1,2,3-triazol-1-yl)propanoic acid, CN(C)Cc1cn(C[C@H](N[*:1])C(=O)[*:2])nn1; B5(18) = 2,2-bis(4-pentenyl)glycine (2-amino-2-(pent-4-en-1-yl)hept-6-enoic acid), stitching residue, C=CCCCC(CCCC=C)(N[*:1])C(=O)[*:2]; B5(4) = 2,2-bis(4-pentenyl)glycine = 2-amino-2-(pent-4-en-1-yl)hept-6-enoic acid (stitching residue), C=CCCCC(CCCC=C)(N[*:1])C(=O)[*:2]; B5(5) = 2,2-bis(4-pentenyl)glycine, 2-amino-2-(pent-4-en-1-yl)hept-6-enoic acid (stitching residue), C=CCCCC(CCCC=C)(N[*:1])C(=O)[*:2]; TfeGA = (S)-2-amino-3-((carboxymethyl)(2,2,2-trifluoroethyl)amino)propanoic acid, O=C([C@H](CN(CC(=O)[*:3])CC(F)(F)F)N[*:1])[*:2]; PyrS2 = (S)-3-amino-1-((pent-4-en-1-yloxy)carbonyl)pyrrolidine-3-carboxylic acid, C=CCCCOC(=O)N1CC[C@@](N[*:1])(C(=O)[*:2])C1; B5(19) = 2-amino-2-(pent-4-en-1-yl)hept-6-enoic acid (bis(4-pentenyl)glycine), C=CCCCC(CCCC=C)(N[*:1])C(=O)[*:2]; B5(3) = 2,2-bis(4-pentenyl)glycine (stitching residue), C=CCCCC(CCCC=C)(N[*:1])C(=O)[*:2]; Phe(F5) = N[C@@H](Cc1c(F)c(F)c(F)c(F)c1F)C(=O)O; Phe(3-COOH) = N[C@@H](Cc1cccc(C(=O)O)c1)C(=O)O; Phe(2-Cl) = N[C@@H](Cc1ccccc1Cl)C(=O)O; Bta = N[C@@H](Cc1csc2ccccc12)C(=O)O; Isobutyloxycarbonyl = CC(C)COC(=O)*; hTyr = N[C@@H](CCc1ccc(O)cc1)C(=O)O; αAllylPro = C=CC[C@@]1(C(=O)O)CCCN1; tBuAla = CC(C)(C)C[C@H](N)C(=O)O; 3Thi = N[C@@H](Cc1ccsc1)C(=O)O; Butoxycarbonyl = CCCCOC(=O)*; R5 = C=CCCC[C@@](C)(N)C(=O)O; hLeu = CC(C)CC[C@H](N)C(=O)O; S5 = C=CCCC[C@](C)(N)C(=O)O; hSer = N[C@@H](CCO)C(=O)O; Nle = CCCC[C@H](N)C(=O)O; Aib = CC(C)(N)C(=O)O; Moc = COC(=O)*
# B1: I-2364 (peptide)
# peptide: Isobutyloxycarbonyl-[αAllylPro]D[tBuAla][B5(4)]DDAAFQ[PyrS2″][3Thi][Bta]H-NH2
# modifications: staple 1-4, 4-11
# B2: I-1794 (peptide)
# peptide: Ac-[αAllylPro]D[tBuAla][B5(3)]DHAAF[hSer][PyrS2″][3Thi][Bta]Q-NH2
# modifications: staple 1-4, 4-11; not fully specified; printed as Ac-PL3-Asp-Npg-B5-Asp-His-Ala-Ala-Phe-Hse-PyrS2-3Thi-BztA-Gln-NH2
# B3: I-1792 (peptide)
# peptide: Ac-[αAllylPro]D[tBuAla][B5(19)]D[Phe(F5)]AAFL[PyrS2][3Thi][Bta]Q-NH2
# modifications: staple 1-4, 4-11
# B4: I-2363 (peptide)
# peptide: Butoxycarbonyl-[αAllylPro]D[tBuAla][B5(4)]DDAAFQ[PyrS2″][3Thi][Bta]H-NH2
# modifications: staple 1-4, 4-11
# B5: I-2377 (peptide)
# peptide: {3‑(allyloxy)benzoyl}-PD[tBuAla][B5(5)]D[TfeGA]AAFL[PyrS2″][3Thi][Bta]Q-NH2
# modifications: staple 4-11, N-4; also: -CH=CH- in each staple reduced to -CH2-CH2-
# B6: I-1620 (peptide)
# peptide: Ac-[αAllylPro]D[tBuAla][B5(4)]NTAAF[hLeu][PyrS2″][3Thi][Bta]Q-NH2
# modifications: staple 1-4, 4-11
# B7: I-1788 (peptide)
# peptide: Ac-[αAllylPro]D[tBuAla][B5(19)]DWAAFN[PyrS2][3Thi][Bta]Q-NH2
# modifications: staple 1-4, 4-11
# B8: I-1786 (peptide)
# peptide: Ac-[αAllylPro]D[tBuAla][B5(19)]D[hTyr]AAF[hSer][PyrS2][3Thi][Bta]Q-NH2
# modifications: staple 1-4, 4-11
# B9: I-1793 (peptide)
# peptide: Ac-[αAllylPro]D[tBuAla][B5(19)]DHAAF[hSer][PyrS2][3Thi][Bta]Q-NH2
# modifications: staple 1-4, 4-11; not fully specified; printed as Ac-PL3-Asp-Npg-B5-Asp-His-Ala-Ala-Phe-Hse-PyrS2-3Thi-BztA-Gln-NH2
# B10: I-1619 (peptide)
# peptide: Ac-[αAllylPro]D[tBuAla][B5(4)]NTAAF[Nle][PyrS2″][3Thi][Bta]Q-NH2
# modifications: staple 1-4, 4-11
# B11: I-1784 (peptide)
# peptide: Ac-[αAllylPro]D[tBuAla][B5(19)]DYAAFL[PyrS2][3Thi][Bta]Q-NH2
# modifications: staple 1-4, 4-11
# B12: I-1783 (peptide)
# peptide: Ac-[αAllylPro]D[tBuAla][B5(19)]DYAAF[hSer][PyrS2][3Thi][Bta]Q-NH2
# modifications: staple 1-4, 4-11
# B13: I-1781 (peptide)
# peptide: Ac-[αAllylPro]D[tBuAla][S5]DD[Aib]AF[R5]A[3Thi][Bta][S5]A-NH2
# modifications: staple (positions not given here); not fully specified; printed as Ac-PL3-Asp-Npg-S5-Asp-Asp-Aib-Ala-Phe-R5-Ala-3Thi-BztA-S5-Ala-NH2; also: staple pairing among PL3 1, S5 4, R5 10, S5 14 not given here
# B14: I-1621 (peptide)
# peptide: Ac-[αAllylPro]D[tBuAla][B5(4)]NTAAFT[PyrS2″][3Thi][Bta]Q-NH2
# modifications: staple 1-4, 4-11
# B15: I-1780 (peptide)
# peptide: Ac-[αAllylPro]D[tBuAla][S5]DD[Aib]AF[R5]A[3Thi][Bta][S5]A-NH2
# modifications: staple (positions not given here); not fully specified; printed as Ac-PL3-Asp-Npg-S5-Asp-Asp-Aib-Ala-Phe-R5-Ala-3Thi-BztA-S5-Ala-NH2; also: staple pairing among PL3 1, S5 4, R5 10, S5 14 not given here
# B16: I-1791 (peptide)
# peptide: Ac-[αAllylPro]D[tBuAla][B5(19)]D[Phe(F5)]AAF[hSer][PyrS2][3Thi][Bta]Q-NH2
# modifications: staple 1-4, 4-11
# B17: I-1778 (peptide)
# peptide: Ac-[αAllylPro]D[tBuAla][S5]DDAAF[R5]A[3Thi][Bta][S5]A-NH2
# modifications: staple (positions not given here); not fully specified; printed as Ac-PL3-Asp-Npg-S5-Asp-Asp-Ala-Ala-Phe-R5-Ala-3Thi-BztA-S5-Ala-NH2; also: staple pairing among PL3 1, S5 4, R5 10, S5 14 not given here
# B18: I-1789 (peptide)
# peptide: Ac-[αAllylPro]D[tBuAla][B5(19)]DWAAF[hSer][PyrS2][3Thi][Bta]Q-NH2
# modifications: staple 1-4, 4-11
# B19: I-2362 (peptide)
# peptide: Moc-[αAllylPro]D[tBuAla][B5(4)]DDAAFQ[PyrS2″][3Thi][Bta]H-NH2
# modifications: staple 1-4, 4-11
# B20: I-1855 (peptide)
# peptide: Ac-[αAllylPro]D[tBuAla][B5(5)]D[TfeGA]AA[(CH2NMe2)TriAzDap]L[PyrS2″][3Thi][Bta]Q-NH2
# modifications: staple 1-4, 4-11; also: separately listed staple isomer composition
# B21: I-1852 (peptide)
# peptide: Ac-[αAllylPro]D[tBuAla][B5(18)]D[Phe(3-COOH)]AAFL[PyrS2(3)][Phe(2-Cl)][Bta]-NH2
# modifications: staple 1-4, 4-11
# B22: I-1849 (peptide)
# peptide: Ac-[αAllylPro]D[tBuAla][B5(18)]D[Phe(3-COOH)]AAFA[PyrS2(3)][Phe(2-Cl)][Bta]S-NH2
# modifications: staple 1-4, 4-11
# B23: I-1853 (peptide)
# peptide: Ac-[αAllylPro]N[tBuAla][B5(18)]D[Phe(3-COOH)]AAFL[PyrS2(3)][Phe(2-Cl)][Bta]S-NH2
# modifications: staple 1-4, 4-11
# B24: I-1851 (peptide)
# peptide: Ac-[αAllylPro]D[tBuAla][B5(18)]D[Phe(3-COOH)]AAFL[PyrS2(3)][Phe(2-Cl)][Bta]A-NH2
# modifications: staple 1-4, 4-11
# B25: I-1850 (peptide)
# peptide: Ac-[αAllylPro]D[tBuAla][B5(18)]D[Phe(3-COOH)]AAFV[PyrS2(3)][Phe(2-Cl)][Bta]S-NH2
# modifications: staple 1-4, 4-11
# Molecular target: full-length beta-Catenin (Uniprot ID P35222) (Homo sapiens (Human)) (UniProt P35222)
# Assay: fluorescence polarization competition against 5FAM-TCF4 10-53 on full-length beta-catenin
row,IC50 [nM],Binder
1,116,B1
2,52,B2
3,935,B3
4,44,B4
5,978,B5
6,2060,B6
7,58,B7
8,42,B8
9,20,B9
10,1290,B10
11,528,B11
12,101,B12
13,8450,B13
14,266,B14
15,4190,B15
16,182,B16
17,2080,B17
18,183,B18
19,66,B19

# Molecular target: full-length beta-Catenin (Uniprot ID P35222) (Homo sapiens (Human)) (UniProt P35222)
# Assay: fluorescence polarization competition; 10 nM full-length beta-catenin, competitor 10 nM 5FAM-TCF4(10-53)
# Target sequence in this assay (P35222 whole entry): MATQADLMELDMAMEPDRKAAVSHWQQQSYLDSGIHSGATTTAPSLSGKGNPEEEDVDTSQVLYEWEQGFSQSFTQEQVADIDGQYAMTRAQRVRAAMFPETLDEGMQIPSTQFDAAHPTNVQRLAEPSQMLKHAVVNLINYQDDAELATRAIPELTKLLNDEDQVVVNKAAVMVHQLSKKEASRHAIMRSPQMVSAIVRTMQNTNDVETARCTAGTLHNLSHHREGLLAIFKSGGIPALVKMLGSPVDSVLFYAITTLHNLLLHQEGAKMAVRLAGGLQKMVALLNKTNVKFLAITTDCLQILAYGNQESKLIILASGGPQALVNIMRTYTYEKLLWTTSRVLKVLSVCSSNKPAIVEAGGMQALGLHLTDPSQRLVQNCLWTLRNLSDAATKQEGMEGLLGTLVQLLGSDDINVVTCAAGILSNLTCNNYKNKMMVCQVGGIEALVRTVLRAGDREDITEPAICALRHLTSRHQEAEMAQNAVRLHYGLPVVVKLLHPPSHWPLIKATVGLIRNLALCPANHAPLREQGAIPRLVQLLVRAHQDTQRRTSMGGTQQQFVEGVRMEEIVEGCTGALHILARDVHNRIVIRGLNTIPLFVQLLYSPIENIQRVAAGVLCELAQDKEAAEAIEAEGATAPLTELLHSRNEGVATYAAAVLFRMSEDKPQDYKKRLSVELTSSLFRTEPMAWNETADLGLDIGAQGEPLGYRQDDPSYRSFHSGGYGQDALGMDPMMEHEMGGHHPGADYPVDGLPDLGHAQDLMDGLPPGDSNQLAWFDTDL
row,IC50 [nM],Binder
1,849,B20
2,48,B21
3,19,B22
4,114,B23
5,25,B24
6,17,B25
